The text below walks through data of the supplement of paper PMC7125110.

The labels stand for the following.
B1: glmS ribozyme (parent)
chain: AUAAAAGCGCCAGAACUACAGAAAUGUAGUUGACGAGGAGGAGGUUUAUCGAAUUUUCGGCGGAUGCCUCCAAA

Common to all, as to details: with glucosamine-6-phosphate
The variants in data set [1] derive from B1. As to the kind of experiment: kcat; higher = faster cleavage; RNA array. The method in brief: (§1)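 Barcoded ribozyme variants on sequenced MiSeq chips were transcribed in situ by E. coli RNA polymerase and followed at 37 °C through a hybridised Cy3 probe. Glucosamine-6-phosphate at 40 μM to 10 mM in HEPES/KCl/Mg(OAc)2 buffer was flowed in, and tiles were imaged over ~14 h. Signals were normalised to baseline and to non-cleaving reference variants, and per-tile medians were fit to one- or two-exponential decays to give kobs. Weighted Michaelis–Menten fits across concentrations gave kcat and KM.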

The variants in data set [2] derive from B1. As to the kind of experiment: KM; higher = weaker cofactor use; RNA array. The method in brief: as §1
Variants of B1 are the subject of data set [3]. As to the kind of experiment: self-cleavage kobs at 40 uM GlcN6P; higher = faster cleavage; RNA array. The method in brief: as §1
The variants in data set [4] derive from B1. The experiment in a line: self-cleavage kobs at 2500 uM GlcN6P; higher = faster cleavage; RNA array. The method in brief:
as §1

In data set [5] the parent is B1. As to the kind of experiment: self-cleavage kobs at 10000 uM GlcN6P; higher = faster cleavage; RNA array. The method in brief:
as §1

The variants in data set [6] derive from B1. As to the kind of experiment: self-cleavage kobs at 640 uM GlcN6P; higher = faster cleavage; RNA array. The method in brief:
as §1

In data set [7] the parent is B1. As to the kind of experiment: self-cleavage kobs at 160 uM GlcN6P; higher = faster cleavage; RNA array. The method in brief: as §1

± gives the standard error. For part of these data: Fewer inactive variants are shown than the library holds. Some results are limits rather than exact numbers.

For U31A G59U, in the data set with glucosamine-6-phosphate [1], the kcat was 3.57e-05 ± 2.2e-06 s⁻¹. Besides, the KM in the data set with glucosamine-6-phosphate [2] is 2240 ± 490 µM.
On to G44U C71U, for which the kcat with glucosamine-6-phosphate [1] amounted to 0.000114 ± 4.5e-05 s⁻¹. Also, the “self-cleavage kobs at 40 uM GlcN6P” value with glucosamine-6-phosphate [3] was less than 1e-05 s⁻¹. For the same variant, the “self-cleavage kobs at 2500 uM GlcN6P” value with glucosamine-6-phosphate [4] was 9.61e-05 ± 1.4e-05 s⁻¹. Also, the “self-cleavage kobs at 10000 uM GlcN6P” value in the data set with glucosamine-6-phosphate [5] was 8.62e-05 ± 1.2e-05 s⁻¹.
Regarding U30A U54C, the kcat with glucosamine-6-phosphate [1] turned out to be 0.00409 ± 0.0013 s⁻¹. In the data set with glucosamine-6-phosphate [2], the KM is 1040 ± 490 µM. In addition, in the data set with glucosamine-6-phosphate [3], the “self-cleavage kobs at 40 uM GlcN6P” value came out at 0.000151 ± 2.1e-05 s⁻¹. Further, the “self-cleavage kobs at 640 uM GlcN6P” value with glucosamine-6-phosphate [6] was 0.00174 ± 0.00027 s⁻¹. Further, the “self-cleavage kobs at 2500 uM GlcN6P” value in the data set with glucosamine-6-phosphate [4] amounted to 0.00215 ± 0.00045 s⁻¹. Also, the “self-cleavage kobs at 10000 uM GlcN6P” value with glucosamine-6-phosphate [5] turned out to be 0.00543 ± 0.001 s⁻¹.
With C11U C34U G63U C70G, the kcat with glucosamine-6-phosphate [1] is 2.22e-05 ± 4.3e-06 s⁻¹.
With G35C C68U, in the data set with glucosamine-6-phosphate [1], the kcat is less than 1e-05 s⁻¹. Moreover, in the data set with glucosamine-6-phosphate [3], the “self-cleavage kobs at 40 uM GlcN6P” value is less than 1e-05 s⁻¹. Moreover, in the data set with glucosamine-6-phosphate [7], the “self-cleavage kobs at 160 uM GlcN6P” value was less than 1e-05 s⁻¹.
With U46A C70U, the kcat with glucosamine-6-phosphate [1] was 0.004 ± 0.0017 s⁻¹. The “self-cleavage kobs at 40 uM GlcN6P” value with glucosamine-6-phosphate [3] came out at 0.000188 ± 3.1e-05 s⁻¹. For the same variant, in the data set with glucosamine-6-phosphate [7], the “self-cleavage kobs at 160 uM GlcN6P” value was 0.000346 ± 5.5e-05 s⁻¹. The “self-cleavage kobs at 640 uM GlcN6P” value in the data set with glucosamine-6-phosphate [6] worked out at 0.00135 ± 0.00019 s⁻¹. Moreover, the “self-cleavage kobs at 2500 uM GlcN6P” value in the data set with glucosamine-6-phosphate [4] worked out at 0.00206 ± 0.00026 s⁻¹. The “self-cleavage kobs at 10000 uM GlcN6P” value in the data set with glucosamine-6-phosphate [5] is 0.00626 ± 0.00087 s⁻¹.
C58A U69C: the kcat with glucosamine-6-phosphate [1] came out at 0.000112 ± 1.3e-05 s⁻¹. In addition, the KM in the data set with glucosamine-6-phosphate [2] amounted to 640 ± 220 µM. For the same variant, the “self-cleavage kobs at 160 uM GlcN6P” value in the data set with glucosamine-6-phosphate [7] was 3.58e-05 ± 1.2e-05 s⁻¹. The “self-cleavage kobs at 640 uM GlcN6P” value with glucosamine-6-phosphate [6] was 4.91e-05 ± 1e-05 s⁻¹. In addition, in the data set with glucosamine-6-phosphate [4], the “self-cleavage kobs at 2500 uM GlcN6P” value was 9.46e-05 ± 2.2e-05 s⁻¹. Also, the “self-cleavage kobs at 10000 uM GlcN6P” value in the data set with glucosamine-6-phosphate [5] stood at 0.000107 ± 1.5e-05 s⁻¹.
For the variant G13A C16U, the kcat with glucosamine-6-phosphate [1] came to 0.000763 ± 9.4e-05 s⁻¹. Further, in the data set with glucosamine-6-phosphate [2], the KM stood at 2220 ± 460 µM. For the same variant, the “self-cleavage kobs at 160 uM GlcN6P” value in the data set with glucosamine-6-phosphate [7] was 4.29e-05 ± 1.2e-05 s⁻¹. Moreover, the “self-cleavage kobs at 640 uM GlcN6P” value in the data set with glucosamine-6-phosphate [6] is 0.000172 ± 2.2e-05 s⁻¹. Also, the “self-cleavage kobs at 2500 uM GlcN6P” value in the data set with glucosamine-6-phosphate [4] came out at 0.000459 ± 5.5e-05 s⁻¹. For the same variant, the “self-cleavage kobs at 10000 uM GlcN6P” value with glucosamine-6-phosphate [5] is 0.000577 ± 7.9e-05 s⁻¹.
In the case of A15C A39C, the kcat with glucosamine-6-phosphate [1] turned out to be 0.00146 ± 0.00042 s⁻¹. For the same variant, the KM with glucosamine-6-phosphate [2] worked out at 3400 ± 1700 µM. In addition, the “self-cleavage kobs at 40 uM GlcN6P” value in the data set with glucosamine-6-phosphate [3] turned out to be 2.08e-05 ± 6.5e-06 s⁻¹. Further, the “self-cleavage kobs at 160 uM GlcN6P” value with glucosamine-6-phosphate [7] was determined as 0.000119 ± 1.5e-05 s⁻¹. Besides, the “self-cleavage kobs at 640 uM GlcN6P” value with glucosamine-6-phosphate [6] was determined as 0.000171 ± 2.6e-05 s⁻¹. Moreover, the “self-cleavage kobs at 2500 uM GlcN6P” value with glucosamine-6-phosphate [4] turned out to be 0.000622 ± 9.2e-05 s⁻¹. The “self-cleavage kobs at 10000 uM GlcN6P” value with glucosamine-6-phosphate [5] turned out to be 0.00112 ± 8.5e-05 s⁻¹.
Consider U56A C58G, for which the kcat in the data set with glucosamine-6-phosphate [1] amounted to 0.000188 ± 1.8e-05 s⁻¹. Further, in the data set with glucosamine-6-phosphate [2], the KM was found to be 1930 ± 470 µM. In addition, in the data set with glucosamine-6-phosphate [6], the “self-cleavage kobs at 640 uM GlcN6P” value turned out to be 4.15e-05 ± 9.1e-06 s⁻¹. In addition, the “self-cleavage kobs at 2500 uM GlcN6P” value with glucosamine-6-phosphate [4] turned out to be 0.000121 ± 1.6e-05 s⁻¹. The “self-cleavage kobs at 10000 uM GlcN6P” value with glucosamine-6-phosphate [5] is 0.000151 ± 1.7e-05 s⁻¹.
For the variant A6U G7A, in the data set with glucosamine-6-phosphate [1], the kcat is less than 1e-05 s⁻¹. Further, in the data set with glucosamine-6-phosphate [7], the “self-cleavage kobs at 160 uM GlcN6P” value is less than 1e-05 s⁻¹. Also, in the data set with glucosamine-6-phosphate [6], the “self-cleavage kobs at 640 uM GlcN6P” value was less than 1e-05 s⁻¹.
Turning to A33G A36C, the kcat with glucosamine-6-phosphate [1] turned out to be 1.58e-05 ± 7.1e-06 s⁻¹. Further, the “self-cleavage kobs at 40 uM GlcN6P” value with glucosamine-6-phosphate [3] is less than 1e-05 s⁻¹. For the same variant, the “self-cleavage kobs at 160 uM GlcN6P” value in the data set with glucosamine-6-phosphate [7] was less than 1e-05 s⁻¹. The “self-cleavage kobs at 640 uM GlcN6P” value in the data set with glucosamine-6-phosphate [6] is less than 1e-05 s⁻¹. The “self-cleavage kobs at 10000 uM GlcN6P” value with glucosamine-6-phosphate [5] was less than 1e-05 s⁻¹.
As to U46A G60A, the kcat with glucosamine-6-phosphate [1] is less than 1e-05 s⁻¹. Moreover, the “self-cleavage kobs at 640 uM GlcN6P” value in the data set with glucosamine-6-phosphate [6] is less than 1e-05 s⁻¹.
As to A42G U45A, the kcat in the data set with glucosamine-6-phosphate [1] came to 0.0167 ± 0.0051 s⁻¹. Further, the KM with glucosamine-6-phosphate [2] was 303 ± 130 µM. Moreover, the “self-cleavage kobs at 40 uM GlcN6P” value in the data set with glucosamine-6-phosphate [3] stood at 0.00181 ± 0.00058 s⁻¹. In the data set with glucosamine-6-phosphate [7], the “self-cleavage kobs at 160 uM GlcN6P” value amounted to 0.00634 ± 0.0022 s⁻¹.
C34U G63C: the kcat with glucosamine-6-phosphate [1] was less than 1e-05 s⁻¹. Further, the “self-cleavage kobs at 640 uM GlcN6P” value in the data set with glucosamine-6-phosphate [6] was less than 1e-05 s⁻¹. The “self-cleavage kobs at 2500 uM GlcN6P” value in the data set with glucosamine-6-phosphate [4] was less than 1e-05 s⁻¹.
Regarding G7U C8G C50A, the kcat with glucosamine-6-phosphate [1] is 2.71e-05 ± 5.9e-06 s⁻¹.
With U55A U65C, the kcat with glucosamine-6-phosphate [1] stood at 0.000613 ± 6.7e-05 s⁻¹. The KM with glucosamine-6-phosphate [2] was determined as 1160 ± 230 µM. Moreover, in the data set with glucosamine-6-phosphate [7], the “self-cleavage kobs at 160 uM GlcN6P” value is 7.83e-05 ± 1.4e-05 s⁻¹. Further, the “self-cleavage kobs at 640 uM GlcN6P” value with glucosamine-6-phosphate [6] stood at 0.0002 ± 2.9e-05 s⁻¹. Also, the “self-cleavage kobs at 2500 uM GlcN6P” value with glucosamine-6-phosphate [4] was found to be 0.000471 ± 6.1e-05 s⁻¹. Besides, the “self-cleavage kobs at 10000 uM GlcN6P” value with glucosamine-6-phosphate [5] turned out to be 0.000505 ± 9.2e-05 s⁻¹.
Turning to A12C U45A A64U, in the data set with glucosamine-6-phosphate [1], the kcat amounted to 0.00036 ± 8.2e-05 s⁻¹. Further, the KM in the data set with glucosamine-6-phosphate [2] turned out to be 5800 ± 2500 µM. Also, the “self-cleavage kobs at 640 uM GlcN6P” value in the data set with glucosamine-6-phosphate [6] turned out to be 2.84e-05 ± 1.2e-05 s⁻¹. In addition, the “self-cleavage kobs at 2500 uM GlcN6P” value with glucosamine-6-phosphate [4] is 0.000134 ± 3.1e-05 s⁻¹. Moreover, in the data set with glucosamine-6-phosphate [5], the “self-cleavage kobs at 10000 uM GlcN6P” value came to 0.000223 ± 3.2e-05 s⁻¹.
